# Measured values taken from US20200270321A1.
# Experiments:
# [1] = target: mouse 4-1BB on activated mouse splenocytes (mouse) (UniProt P20334); test: flow cytometry on activated mouse splenocytes, gate CD8+ T cells; PE anti-human IgG Fc-gamma F(ab')2; median fluorescence, baseline corrected
# [2] = target: mouse 4-1BB on activated mouse splenocytes (mouse) (UniProt P20334); test: flow cytometry on activated mouse splenocytes, gate CD4+ T cells; PE anti-human IgG Fc-gamma F(ab')2; median fluorescence, baseline corrected
# Sequence of mouse 4-1BB on activated mouse splenocytes (mouse) (P20334 24-256): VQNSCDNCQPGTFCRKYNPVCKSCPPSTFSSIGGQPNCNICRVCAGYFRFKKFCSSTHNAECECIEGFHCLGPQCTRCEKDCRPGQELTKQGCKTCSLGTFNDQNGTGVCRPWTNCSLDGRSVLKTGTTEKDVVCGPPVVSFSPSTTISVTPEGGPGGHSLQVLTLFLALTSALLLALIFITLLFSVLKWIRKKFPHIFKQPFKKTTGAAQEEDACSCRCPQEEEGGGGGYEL
substance,measurement,setting,value
anti-mouse Lob12.3 huIgG1 (antibody),EC50 (read off the curve),[1],0.1 nM
same,EC50 (read off the curve),[2],0.09 nM
